Read-outs that look alike come from different tables or passages of the source. Where no end group is shown, it is not given here. [ ]: non-standard residue; d: D form. Aze = O=C(O)[C@@H]1CCN1
What was measured:
Test in all cases: cell-based or functional assay
[1] = target: EGLN2
[2] = target: EGLN1
[3] = target: EGLN3
[4] = target: EGLN2; remark: listed apart in the source
[5] = target: EGLN3; remark: listed apart in the source
[6] = target: EGLN1; remark: listed apart in the source

Binder	Activity (%)* [1]	Activity (%)* [2]	Activity (%) [3]	Activity (%)* [4]	Activity (%)* [5]	Activity (%)* [6]
DTDLDIEAVA[Aze]YIPADDDFQ [DTDLDIEAVA8YIPADDDFQ]	1.96%	6.35%	18.8%	–	–	–
DTDLDLEMLAPYIPMDDDFQ [Control peptide DTD20, DTDLDLEMLApYIPMDDDFQ]	100%	100%	119%	100%	119%	100%
DTDLDLEALA[b‑thioproline]YIPADDDFQ [DTDLDLEALA5YIPADDDFQ]	7.9%	8.93%	11.1%	–	–	–

Other lines, results leading:

Activity (%)* [1]	Activity (%)* [2]	Activity (%) [3]	Activity (%)* [4]	Activity (%)* [5]	Activity (%)* [6]	Binder
2.81%	7.96%	14.8%	–	–	–	DTDLDVEAIA[Aze]YIPADDDFQ [DTDLDVEAIA8YIPADDDFQ]
3.36%	10%	17.2%	–	–	–	DTDLDAEAVA[Aze]YIPADDDFQ [DTDLDAEAVA8YIPADDDFQ]
1.88%	6.68%	9.72%	–	–	–	DTDLDAEAIA[Aze]YIPADDDFQ [DTDLDAEAIA8YIPADDDFQ]

Source: US20080113383A1 (FIBRO GEN, published 2008)
